125 sequences from the supplement of paper PMC9112550, “Optimization of the antimicrobial peptide Bac7 by deep mutational scanning” (BMC Biology, 2022) can be followed below.

This data set relates to Escherichia coli TOP10. In words: shrunken log2 fold change of peptide-encoding DNA abundance (4.5 h post-induction vs induction); higher = less antimicrobial activity (less host growth inhibition). To be noted: time post-induction: 4.5 h; library: site-saturation at positions 5, 18, 19, 20.
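Further: peptides expressed intracellularly from a pBAD plasmid library in pooled LB shake-flask culture, induced with 0.3% L-arabinose, DNA abundance read by NGS, three biological replicates, DESeq2 with apeglm shrinkage.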

Turning to RRIRSRPPRLPRPRPRPVDWPRP, the “shrunken log2 fold change” value was determined as 0.306. Then RRIRDRPPRLPRPRPRPFDMPRP, with 0.0213. With RRIRCRPPRLPRPRPRPYVYPRP the figure was -0.834; with RRIRERPPRLPRPRPRPKVGPRP, 0.0685; with RRIRHRPPRLPRPRPRPRPLPRP, 0.255. In the case of RRIRARPPRLPRPRPRPFGWPRP, the “shrunken log2 fold change” value was determined as 0.24. For the sequence RRIRDRPPRLPRPRPRPLCWPRP, the “shrunken log2 fold change” value amounted to 0.824. RRIRIRPPRLPRPRPRPWHMPRP: the “shrunken log2 fold change” value is -0.0375. With RRIRERPPRLPRPRPRPAMTPRP the figure was 0.0328; with RRIRFRPPRLPRPRPRPFLDPRP, -0.169; with RRIRWRPPRLPRPRPRPTCNPRP, 0.0836.

On to RRIRHRPPRLPRPRPRPLVCPRP, for which the “shrunken log2 fold change” value was -9.35e-05.

On to RRIRMRPPRLPRPRPRPSQQPRP, for which the “shrunken log2 fold change” value amounted to 0.463. Then RRIRYRPPRLPRPRPRPQWPPRP, with -0.533.

Turning to RRIRPRPPRLPRPRPRPVFEPRP, the “shrunken log2 fold change” value was determined as 0.222. With RRIRRRPPRLPRPRPRPHPTPRP the figure was 0.563; with RRIRGRPPRLPRPRPRPFCMPRP, 0.0902. On to RRIRVRPPRLPRPRPRPKEPPRP, for which the “shrunken log2 fold change” value was 0.0639. Then RRIRLRPPRLPRPRPRPPDIPRP, with -0.0356; and RRIRRRPPRLPRPRPRPDWGPRP, with 0.157. Take RRIRFRPPRLPRPRPRPMMLPRP: the “shrunken log2 fold change” value is -0.139.

In the case of RRIRCRPPRLPRPRPRPCHYPRP, the “shrunken log2 fold change” value is -0.403. Consider RRIRERPPRLPRPRPRPVTYPRP, for which the “shrunken log2 fold change” value is -0.17. RRIRARPPRLPRPRPRPRDGPRP: the “shrunken log2 fold change” value turned out to be 1.3. With RRIRWRPPRLPRPRPRPHYVPRP the figure was -0.113; with RRIRFRPPRLPRPRPRPLGMPRP, -0.0132; with RRIRTRPPRLPRPRPRPRGAPRP, 0.382. Then RRIRKRPPRLPRPRPRPIHSPRP, with -0.00784; and RRIRERPPRLPRPRPRPWRKPRP, with -0.173.

On to RRIRFRPPRLPRPRPRPNRFPRP, for which the “shrunken log2 fold change” value is -0.174. Consider RRIRFRPPRLPRPRPRPRLQPRP, for which the “shrunken log2 fold change” value was found to be 0.221. For the sequence RRIRLRPPRLPRPRPRPINMPRP, the “shrunken log2 fold change” value is -0.482. With RRIRDRPPRLPRPRPRPISRPRP the figure was -0.032; with RRIRPRPPRLPRPRPRPPLCPRP, 0.281; with RRIRARPPRLPRPRPRPECPPRP, 0.683. With RRIRIRPPRLPRPRPRPYDKPRP the figure was -0.224; with RRIRPRPPRLPRPRPRPEQCPRP, -0.0149; with RRIRGRPPRLPRPRPRPNWHPRP, 0.27. For RRIRQRPPRLPRPRPRPFDGPRP, the “shrunken log2 fold change” value was -0.901. With RRIRQRPPRLPRPRPRPGLPPRP the figure was 0.242; with RRIRCRPPRLPRPRPRPPLLPRP, -0.0189; with RRIRFRPPRLPRPRPRPWMTPRP, 0.0687. Then RRIRWRPPRLPRPRPRPQGYPRP, with -0.0909.

As for RRIRARPPRLPRPRPRPFQPPRP, the “shrunken log2 fold change” value stood at 0.0667. As to RRIRIRPPRLPRPRPRPDYHPRP, the “shrunken log2 fold change” value was -1.9. For RRIRARPPRLPRPRPRPDKSPRP, the “shrunken log2 fold change” value is -0.169. Then RRIRARPPRLPRPRPRPRCEPRP, with 0.416; and RRIRKRPPRLPRPRPRPFMHPRP, with 0.0291. Regarding RRIRTRPPRLPRPRPRPSYPPRP, the “shrunken log2 fold change” value is -1.08.

For the sequence RRIRWRPPRLPRPRPRPMANPRP, the “shrunken log2 fold change” value was determined as 0.21. With RRIRKRPPRLPRPRPRPQPLPRP the figure was 0.405. For RRIRGRPPRLPRPRPRPMAHPRP, the “shrunken log2 fold change” value was 0.63.

Take RRIRQRPPRLPRPRPRPKDWPRP: the “shrunken log2 fold change” value is 0.377.

On to RRIRERPPRLPRPRPRPYIEPRP, for which the “shrunken log2 fold change” value is -0.266.

In the case of RRIRLRPPRLPRPRPRPFQFPRP, the “shrunken log2 fold change” value is -0.255. Then RRIRSRPPRLPRPRPRPCLRPRP, with -0.385. Then RRIRNRPPRLPRPRPRPKKFPRP, with -0.0756. For RRIRKRPPRLPRPRPRPCKWPRP, the “shrunken log2 fold change” value is 0.0523.

Turning to RRIRFRPPRLPRPRPRPGPLPRP, the “shrunken log2 fold change” value was determined as 0.262. RRIRVRPPRLPRPRPRPADYPRP: the “shrunken log2 fold change” value came to 0.0436.

As to RRIRPRPPRLPRPRPRPPFPPRP, the “shrunken log2 fold change” value worked out at 0.454.

On to RRIRERPPRLPRPRPRPERFPRP, for which the “shrunken log2 fold change” value was -0.0509.

In the case of RRIRVRPPRLPRPRPRPMVRPRP, the “shrunken log2 fold change” value stood at 0.00709.

On to RRIRYRPPRLPRPRPRPGANPRP, for which the “shrunken log2 fold change” value was -0.0888. As to RRIRIRPPRLPRPRPRPVVRPRP, the “shrunken log2 fold change” value stood at 0.11. Then RRIRYRPPRLPRPRPRPFFQPRP, with -0.428. Then RRIRSRPPRLPRPRPRPWVEPRP, with -0.214. For the sequence RRIRMRPPRLPRPRPRPVKWPRP, the “shrunken log2 fold change” value was found to be 0.0346. Then RRIRERPPRLPRPRPRPWIRPRP, with -0.667; and RRIRKRPPRLPRPRPRPKIQPRP, with 0.113.

Take RRIRPRPPRLPRPRPRPIVKPRP: the “shrunken log2 fold change” value turned out to be 0.000733. Then RRIRDRPPRLPRPRPRPAINPRP, with -0.117; and RRIRFRPPRLPRPRPRPDSWPRP, with -0.161. Then RRIRERPPRLPRPRPRPHAHPRP, with -0.0467; and RRIRCRPPRLPRPRPRPHCPPRP, with -0.508. Then RRIRLRPPRLPRPRPRPCWWPRP, with 0.26.

For the sequence RRIRRRPPRLPRPRPRPNVSPRP, the “shrunken log2 fold change” value amounted to 0.137. RRIRRRPPRLPRPRPRPYKEPRP: the “shrunken log2 fold change” value is -0.463.

Consider RRIRKRPPRLPRPRPRPLHGPRP, for which the “shrunken log2 fold change” value was -0.0122. For RRIRNRPPRLPRPRPRPKMYPRP, the “shrunken log2 fold change” value is -0.0156.

Take RRIRCRPPRLPRPRPRPYNEPRP: the “shrunken log2 fold change” value is -0.51. With RRIRKRPPRLPRPRPRPQIEPRP the figure was 0.0198; with RRIRKRPPRLPRPRPRPSIHPRP, -0.551; with RRIRLRPPRLPRPRPRPKWLPRP, 0.139. Then RRIRRRPPRLPRPRPRPIKNPRP, with 0.278; and RRIRMRPPRLPRPRPRPSDKPRP, with 0.0839. As for RRIRKRPPRLPRPRPRPIRKPRP, the “shrunken log2 fold change” value turned out to be 0.092. RRIRLRPPRLPRPRPRPLESPRP: the “shrunken log2 fold change” value was -0.212. With RRIRGRPPRLPRPRPRPRKLPRP the figure was 0.86; with RRIRYRPPRLPRPRPRPYYMPRP, -1.06. With RRIRYRPPRLPRPRPRPENQPRP the figure was -0.222. For RRIRDRPPRLPRPRPRPKGWPRP, the “shrunken log2 fold change” value was 0.589. With RRIRWRPPRLPRPRPRPELFPRP, the “shrunken log2 fold change” value was -0.0123.

Turning to RRIRKRPPRLPRPRPRPRQWPRP, the “shrunken log2 fold change” value came out at 0.263. As for RRIRGRPPRLPRPRPRPFFYPRP, the “shrunken log2 fold change” value stood at 0.539. With RRIRTRPPRLPRPRPRPMHWPRP the figure was 0.209; with RRIRLRPPRLPRPRPRPRDAPRP, 0.469; with RRIRHRPPRLPRPRPRPADRPRP, -0.0209. With RRIRHRPPRLPRPRPRPISTPRP the figure was -0.578. With RRIRSRPPRLPRPRPRPYVCPRP the figure was -0.414.

Turning to RRIRSRPPRLPRPRPRPAQYPRP, the “shrunken log2 fold change” value amounted to 0.0401. RRIRYRPPRLPRPRPRPCPSPRP: the “shrunken log2 fold change” value was determined as 0.109. With RRIRWRPPRLPRPRPRPIEVPRP the figure was 0.0279; with RRIRPRPPRLPRPRPRPCMNPRP, -0.184; with RRIRDRPPRLPRPRPRPQDGPRP, 0.0175. Then RRIRIRPPRLPRPRPRPVQFPRP, with -0.303. Then RRIRPRPPRLPRPRPRPITAPRP, with -0.187; and RRIRRRPPRLPRPRPRPGEGPRP, with 0.747.

Take RRIRLRPPRLPRPRPRPWYWPRP: the “shrunken log2 fold change” value worked out at 0.134. With RRIRPRPPRLPRPRPRPESEPRP, the “shrunken log2 fold change” value was -0.0127.

Consider RRIRDRPPRLPRPRPRPPDPPRP, for which the “shrunken log2 fold change” value was determined as 0.931. Regarding RRIRTRPPRLPRPRPRPKMFPRP, the “shrunken log2 fold change” value was -0.0043. With RRIRRRPPRLPRPRPRPPMKPRP, the “shrunken log2 fold change” value is 0.522. With RRIRYRPPRLPRPRPRPYKLPRP, the “shrunken log2 fold change” value was -0.491. Then RRIRWRPPRLPRPRPRPPQGPRP, with 0.226; and RRIRVRPPRLPRPRPRPPDTPRP, with 0.166. With RRIRCRPPRLPRPRPRPRTEPRP the figure was 0.0022; with RRIRDRPPRLPRPRPRPMADPRP, 0.523. As for RRIRDRPPRLPRPRPRPCYSPRP, the “shrunken log2 fold change” value is -0.0729. With RRIRQRPPRLPRPRPRPTIDPRP the figure was -0.0223; with RRIRMRPPRLPRPRPRPEHCPRP, 0.429; with RRIRKRPPRLPRPRPRPEFKPRP, 0.165. For RRIRMRPPRLPRPRPRPGNIPRP, the “shrunken log2 fold change” value is -0.115. With RRIRPRPPRLPRPRPRPDFTPRP the figure was -0.411; with RRIRMRPPRLPRPRPRPGTEPRP, 0.562.
